According to patent US20030022827A1:

How the values were obtained:
[1] = biological target: IL-10R subtype I, which consists of an IL-10R1 and an IL-10R2 (human) (UniProt Q13651); assay: cell-based or functional assay
IL-10R1 (human) = IL-10R1 (human) (UniProt Q13651); assay: cell-based or functional assay
Sequence of IL-10R1 (human) (Q13651 22-578): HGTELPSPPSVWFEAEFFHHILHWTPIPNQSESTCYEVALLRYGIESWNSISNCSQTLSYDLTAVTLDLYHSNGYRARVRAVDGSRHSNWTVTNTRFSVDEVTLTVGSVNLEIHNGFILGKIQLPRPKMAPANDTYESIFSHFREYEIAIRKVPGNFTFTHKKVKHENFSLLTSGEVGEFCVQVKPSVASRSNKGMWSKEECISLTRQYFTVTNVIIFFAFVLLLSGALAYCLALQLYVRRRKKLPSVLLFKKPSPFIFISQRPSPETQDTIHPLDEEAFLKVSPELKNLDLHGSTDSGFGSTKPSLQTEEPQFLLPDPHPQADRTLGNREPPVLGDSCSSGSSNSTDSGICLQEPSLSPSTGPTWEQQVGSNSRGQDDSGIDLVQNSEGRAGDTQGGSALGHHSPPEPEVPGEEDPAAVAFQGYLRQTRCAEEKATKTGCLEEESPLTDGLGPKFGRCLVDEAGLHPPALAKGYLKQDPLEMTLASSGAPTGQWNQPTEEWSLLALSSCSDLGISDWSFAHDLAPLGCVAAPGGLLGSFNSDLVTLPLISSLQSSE

Sequence of IL-10R subtype I, which consists of an IL-10R1 and an IL-10R2 (human) (Q13651 22-578, chain 1 of 2): as the sequence (Q13651 22-578) above
Sequence of IL-10R subtype I, which consists of an IL-10R1 and an IL-10R2 (human) (Q08334 20-325, chain 2 of 2, further chain): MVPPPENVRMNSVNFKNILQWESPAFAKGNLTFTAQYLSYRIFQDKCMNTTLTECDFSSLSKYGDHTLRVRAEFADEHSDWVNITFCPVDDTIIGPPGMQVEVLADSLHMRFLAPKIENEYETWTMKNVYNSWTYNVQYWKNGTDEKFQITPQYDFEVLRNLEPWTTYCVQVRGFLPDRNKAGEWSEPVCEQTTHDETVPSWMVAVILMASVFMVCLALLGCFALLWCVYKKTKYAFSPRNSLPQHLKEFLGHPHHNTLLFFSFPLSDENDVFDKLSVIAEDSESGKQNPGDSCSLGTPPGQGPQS

## Epstein-Barr virus-coded protein BCRF1 (from UniProt P03180 24-170) (ligand)
[1]
  expression of the low-affine IgG receptor CD16 on monocytes (flow cytometry): 30 to 100 ng/mL
IL-10R1 (human)
  inhibition of LPS-induced TNF-α release of PBMC (ELISA of supernatant): 3 ng/mL
